Assay results as given in US20230357354A1, “CD38-BINDING CD31 PEPTIDES AND USES THEREOF” (ENCEFA, priority 2020, published 2023).

Tested on: dopaminergic (TH^+) neurons in midbrain cultures
Assay: MPP+ intoxication model: DA (TH+) cell survival in midbrain cultures
Format: cell-based, Wistar rat
Protocol: Animals were treated in accordance with the Guide for the Care and Use of Laboratory Animals (National Research Council, 1996), European Directive 86/609, and the guidelines of the local institutional animal care and use committee. Cultures were prepared from the ventral mesencephalon of gestational age 15.5 Wistar rat embryos (Janvier Breeding Center, Le Genest St Isle, France). Dissociated cells in suspension obtained by mechanical trituration of midbrain tissue pieces were seeded at a density of 1.2-1.5×10^5 cells/cm^2 onto tissue culture supports precoated with 1 mg/mL polyethylenimine diluted in borate buffer pH 8.3 as described (Michel et al., 1997. J Neurochem. 69(4):1499-507). The cultures were then maintained in N5 medium supplemented with 5 mM glucose, 5 % horse serum, and 0.5 % fetal calf serum, except for the first 3 DIV, when the concentration of fetal calf serum was 2.5% to favor initial maturation of the cultures (Guerreiro et al., 2008. Mol Pharmacol. 74(4):980-9). They were fed daily by replacing 70% of the medium. Routinely, mesencephalic cultures were established on Nunc 24-well culture plates (Thermofischer Scientific, Rochester, NY). Note that these cultures contain tyrosine hydroxylase (TH)^+ neurons that were exclusively dopaminergic (Traver et al., 2006. Mol Pharmacol. 70(1):30-40). […]

B1: murine sCD31: murine soluble CD31 (extracellular domain of CD31) having SEQ ID NO: 18, used in Example 1 (protein, listed as Mus musculus)
chain: MLLALGLTLVLYASLQAEENSFTINSIHMESLPSWEVMNGQQLTLECLVDISTTSKSRSQHRVLFYKDDAMVYNVTSREHTESYVIPQARVFHSGKYKCTVMLNNKEKTTIEYEVKVHGVSKPKVTLDKKEVTEGGVVTVNCSLQEEKPPIFFKIEKLEVGTKFVKRRIDKTSNENFVLMEFPIEAQDHVLVFRCQAGILSGFKLQESEPIRSEYVTVQESFSTPKFEIKPPGMIIEGDQLHIRCIVQVTHLVQEFTEIIIQKDKAIVATSKQSSEAVYSVMAMVEYSGHYTCKVESNRISKASSIMVNITELFPKPKLEFSSSRLDQGELLDLSCSVSGTPVANFTIQKEETVLSQYQNFSKIAEESDSGEYSCTAGIGKVVKRSGLVPIQVCEMLSKPSIFHDAKSEIIKGHAIGISCQSENGTAPITYHLMKAKSDFQTLEVTSNDPATFTDKPTRDMEYQCRADNCHSHPAVFSEILRVRVIAPVDEVVISILSSNEVQSGSEMVLRCSVKEGTSPITFQFYKEKEDRPFHQAVVNDTQAFWHNKQASKKQEGQYYCTASNRASSMRTSPRSSTLAVRVFL
modifications: Murine sCD31
3 µM MPP^+ between 5 and 7 DIV
  EC50 of prevention of MPP^+-induced DA cell loss: 36 ng/mL
MPP^+ 3 µM between 5 and 7 DIV, HB7 1 µg/mL
  neuroprotective effect against MPP^+-induced DA cell death: neuroprotective
